Results on four molecules are retold here after paper PMC4218836 (2014).

Changes are numbered by the printed parent chain.

The target in assay [1] is T1, GST-RhoAL63 (UniProt P61586 1-193, L63). Put plainly: SPR.
The target of assay [2] is T2, GST-RhoBL63 (UniProt P62745 1-196, L63). Put plainly: SPR. In general terms: SPR reads the build-up and loss of mass on a sensor chip optically.
For assay [3], the target named is T1, GST-RhoAL63. The experiment in a line: SPR. This is another data set of the same source.
Assay [4] concerns the target T2, GST-RhoBL63. The experiment in a line: SPR. This is another data set of the same source.
In a further assay the target is 6xHis-RhoAL63 (UniProt P61586 1-193, L63). Put plainly: ELISA.
Chain of 6xHis-RhoAL63 (P61586 other isoform, or with tags, fused parts or gaps L63): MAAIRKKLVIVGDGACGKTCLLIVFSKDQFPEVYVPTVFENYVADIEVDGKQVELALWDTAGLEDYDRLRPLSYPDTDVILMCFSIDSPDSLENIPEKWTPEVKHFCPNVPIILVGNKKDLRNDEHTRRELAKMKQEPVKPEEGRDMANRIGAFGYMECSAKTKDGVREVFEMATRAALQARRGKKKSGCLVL
The next assay addresses 6xHis-RhoBL63 (UniProt P62745 1-196, L63). Put plainly: ELISA.

T2 sequence (P62745 other isoform, or with tags, fused parts or gaps L63): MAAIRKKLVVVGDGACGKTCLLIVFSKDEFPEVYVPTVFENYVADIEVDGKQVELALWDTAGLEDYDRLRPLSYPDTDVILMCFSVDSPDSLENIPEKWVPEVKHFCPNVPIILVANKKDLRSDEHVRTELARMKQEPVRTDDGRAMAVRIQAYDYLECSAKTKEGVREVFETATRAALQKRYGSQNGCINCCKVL
T1 sequence (P61586 other isoform, or with tags, fused parts or gaps L63): as the sequence (P61586 other isoform, or with tags, fused parts or gaps L63) above
Chain of 6xHis-RhoBL63 (P62745 other isoform, or with tags, fused parts or gaps L63): as the sequence (P62745 other isoform, or with tags, fused parts or gaps L63) above

B1: scFvE3 (soluble, in fusion with the N-terminal domain of the phage P3 protein) (scFv, V domains shown)
VH: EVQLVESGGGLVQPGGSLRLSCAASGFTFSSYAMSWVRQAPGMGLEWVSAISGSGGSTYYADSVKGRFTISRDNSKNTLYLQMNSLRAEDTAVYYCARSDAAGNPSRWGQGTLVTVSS
VL: SSELTQDPAVSVALGQTVRITCQGDSLRSYYTSWYQQKPGQAPVRVIYGKNNRPSGVPDRFSGSSSGNTASLTITGAQAEDEADYYCNSRDSSGNHAYVFGGGTKLTVL
The term koff denotes the first-order rate constant of dissociation. A higher koff goes with a short-lived complex. The term Kd denotes a measure of binding affinity in units of concentration. Take B1: the koff in the assay with GST-RhoAL63 [1] stood at 0.0176 s⁻¹; with GST-RhoBL63 [2], 0.000683 s⁻¹. For the same molecule, the Kd is 36.9 nM with GST-RhoAL63 [3] and 3.14 nM with GST-RhoBL63 [4].

B2: scFvF7 (soluble, in fusion with the N-terminal domain of the phage P3 protein) (scFv, V domains shown)
VH: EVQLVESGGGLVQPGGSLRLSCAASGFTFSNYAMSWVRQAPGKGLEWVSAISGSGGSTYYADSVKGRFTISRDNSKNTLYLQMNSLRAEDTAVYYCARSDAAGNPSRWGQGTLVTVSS
VL: B1 VL with T32A, R45L, V57I, S89T
Turning to B2, the koff amounted to 0.000248 s⁻¹ with GST-RhoAL63 [1] and 0.000414 s⁻¹ with GST-RhoBL63 [2]. Moreover, the Kd with GST-RhoAL63 [3] stood at 2.35 nM; with GST-RhoBL63 [4] it was 3.39 nM.

B3: scFvA5 (soluble, in fusion with the N-terminal domain of the phage P3 protein) (scFv, V domains shown)
VH: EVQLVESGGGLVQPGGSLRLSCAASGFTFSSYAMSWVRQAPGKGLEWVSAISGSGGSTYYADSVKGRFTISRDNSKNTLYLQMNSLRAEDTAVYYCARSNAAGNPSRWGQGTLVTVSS
VL: B1 VL with T32A, R45L, V57I
Regarding B3, the dissociation constant (Kd) with 6xHis-RhoAL63 was found to be 24.5 nM; with 6xHis-RhoBL63 it was 24 nM.

B4: scFvD10 (soluble, in fusion with the N-terminal domain of the phage P3 protein) (scFv, V domains shown)
VH: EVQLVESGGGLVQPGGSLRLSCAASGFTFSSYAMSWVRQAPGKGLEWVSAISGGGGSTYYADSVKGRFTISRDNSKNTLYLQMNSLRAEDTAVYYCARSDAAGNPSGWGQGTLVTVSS
VL: B1 VL with T32A, R45L, V57I
Molecule B4 registered a koff with GST-RhoAL63 [1] of 0.00297 s⁻¹. The Kd with GST-RhoAL63 [3] worked out at 39.6 nM.
